Laboratory results as given in the nanobody polyreactivity screen of Harvey et al. (2022).

experiment: yeast display, Sf9 membrane polyspecificity reagent, FACS + sequencing; frameworks hold sequencing errors
Summary of the method: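 After 36–48 hours of galactose induction, yeast (Saccharomyces cerevisiae BJ5465) displaying a synthetic nanobody library were stained at 4 °C for 1 hour with 10% biotinylated, detergent-solubilized Sf9 membrane reagent. Streptavidin microbeads enriched the stained cells before FACS sorting into low and high (top ~1%) gates on anti-HA and streptavidin fluorescence. Each clone's polyreactivity label reflects its gate of origin.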

| Sequence | polyreactivity (PSR sort gate) |
| --- | --- |
| QVQLVESGGGLVQAGGSLRLSCAASGLTFDDYAMGWYRQAPGKERELVAAINWSGSNTYYADSVKGRFTISRDNAKNTVYLQMNSLKPEDTAVYYCATYSRIFKWEYYYWGQGTQVTVSS | high polyreactivity |
| QVQLVESGGGLVQAGGSLRLSCAASGFIFRYYALGWYRQAPGKERELVAAIDYSGGSTNYADSVKGRFTISRDNAKNTVYLQMNSLKPEDNAVYYCNAEYTWHRGYDYWGQGTQVTVSS | low polyreactivity |
| QVQLVESGGGLVQAGGSLRLSCAASGSIFVRYTIVWYRQSTWKEMELVAAITSGGRTYYADSVKGRFTISRDNAKNTVYLQMNSLKPEDTAVYYSADVPHIRRYGFYYWGQGTQVTVSS | high polyreactivity |
| QVQLVESGGGLVQAGGSLRLSCAASGFIFSGNAMGWYRQAPGKERELVAAISGRGGRTYYADSVKGRFTISRDNAKNTVYLQMNSLKPEDTAVYYCAADNPYLGRKFDYWGQGTQVTVSS | high polyreactivity |
| QVQLVESGGGLVQAGGSLRLSCAASGSIFWANAMGWYRQAPGNERELVAAISRSGTSTFYADSVKGRFTISRDNAKNTVYLQMNSLKPEDTAVYYCNAVGSGYRSWYVYWGQGTQVTVSS | high polyreactivity |
| QVQLVESGRGLVQAGGSLRLSCAASGSNFRAYAMGWSRQAPGKERELVAAISIGGRTYYADSVKGRFTISRDNAKNTVYLQMNSLKPEDTAVYYCAAVRSYVKGGMYYWGQGTQVTVSS | low polyreactivity |
| QVQLVESGGGLVQAGGSLRLSCAASGFTLGSYAMGWYRQAPGKDRELVARISSDGSTNYADSVKGRFTISRDNAKNTVYLQMNSLKPEDTAVYYCAADFTYYDSPYRDYNYESWGQGAQVTVSS | low polyreactivity |
| QVQLVESGGGLVQAGGSLRLSCDASGRTFDVYTKGWYRQAPGKERELVDANNGGGSTYYADSVKGRFTISRDNAKNTVYLQMNSLKPEDPAVFYCAAKFRAGRSSYRGSPRYDSWGQGTHVTVSS | high polyreactivity |
| QVQLVESGGGLVQAGGSLRLSCAASGSILPYYAMGWYRQAPGKERELVATITDGTDTYYADSVKGRFTISRDNAKNTVYLQMNSLKPEDTAVYYCNADGYVYYLHEDYWGQGTQVTVSS | low polyreactivity |
| QVQLVESGGGLVQAGGSLRLSCAGSGSTFKYYAMGWYRQAPGKARELVAAIRTSGGRTYYADSVKGRFTISRDNAKNTVYLPMNSLKPEDTAVYYCNASSTQFGQRYEYWGQGTQVTVSS | high polyreactivity |
| QVQLVESGGGLVQEGGSLRLSCAASGLIFGAYALGWYRQAPGKERELVAAISGRGGSTYYADSVKGRFTISHDNAKNTVYLQMNSLKPEDNAVYYCAAPWRYTYYYWGQGTQVTVSS | high polyreactivity |
| QVQLVESGGGLDQAGGSLRLSCAASGRIYYPYARGLYRQAPGKESELVAAISSGVSTNYADSVKGRFTISRDNAKTTVYLQMNSLKPEDTAVYYCARTYFRFASSYYPAVSHGYWGQGTQVTVSS | high polyreactivity |
| QVQLVESGGGLVQAGGSLRLSCSASGFTIYYYTMGWYRQAPGKERELVAAITRSGGRTYYADSVKGRFTISRDNSKNTVYLQMISLKPEDPAVYYCAASTYNNFWYLGYGYWGQGTQVTVSS | high polyreactivity |
| QVQLVESGGGLVQAGGSLRLSCAASGSIFCQYVMGWYRQAPGKERVLVAAISWSGPRTYYADSVKGRFTISRDNAKNTVDLQMNSLKPEDTAVYYCAARRLYAGHQYDYWGQGTQVTVSS | high polyreactivity |
| QVQLVESGGGLVQAGGSLRLSCAASGSIIGRNAMGWYRQAPGQEREMVAAISTRGGRTYYADSVKGRFTISRDNAKNNDYLQMNSLKPEDTAVYYCAAVGPYRWYDYWGQGTQVTVSS | high polyreactivity |
| QVQLVESGGGLVQAGGSLRLSCAASGRTFNWYAMGWYRQAPGKERELVAAISYSGGGTYYADSVKGRFTISRDTAKNTVYLQMNSLKPEDTAVYYCAAETYYAPYDYWGQGTQVTVSS | high polyreactivity |
| QVQLVESGGGLVEAGGSLRLSCAASGRTFGTYPMGWYRQAPGKERELVAAISSRGGTTYYADSVKGRFTISRDNAKNTVYLQMNSLKPEDTEVYYCARASWSITTVLSTMDYWGQGTQVTVSS | high polyreactivity |
| QVQLVESGGGLVQAGGSLRLSCAASGSTFDTYAMGWYRQAPGKERELVAAISRSGTSTYYADSVKGRFTISRDNAKNTVYLQMNSLKPEDTAVYFCNNPWYSYRYGGVGYGYWGQGTQVTVSS | low polyreactivity |
| QVQLVESGGGLVQAGGSLRLSCAASGSTFPSYAMGWYRQAPGKERELVAAINSGGGTNYADSVKGRFTISRDNAKNTVYFQMNSLKPEDTAVYYCAKSRDDYTNTEGGYWGQGTQVTVSS | low polyreactivity |
| QLQHVESGGGLVQAGGSLRLSCADSGRTFQYYAMGSYRQPPGKESELVAAINTSGGRTSYADSVKGRFTISRDNAKNTVYLQMNILKPEDTAVYYCAAKPFSYVYSSYYYWGQGTQVTVSS | high polyreactivity |
| QVQLVESGGGLVQAGGSLLLSCAASGRIFDLNAMGWYRQAPGKERELVAAITNTGSTNYADSVKGRFTISRDNAKNTVYLQMNSLKPEDTAVYYCARTYWLRYYGYRDDEYDYWGQGTQVTVSS | low polyreactivity |
| QVQLVESGGGLVQAGGSLRLSCAASGSIFFDYAMGWYRQAPGKETELVAAMSSTGGSTYYADSVKGRFTISRDNSKNTVYLQMNSLIPEDTAVYYCNARYYSYSSPYDYWGEGTQVTVSS | high polyreactivity |

| Sequence | polyreactivity (PSR sort gate) |
| --- | --- |
| QFQLEESGVGLVQAGGSLRLSCAASGFTFNVYAMGWYRQAPGKERELVAAIRWGAGSTYYADSVKGRFTISRDNAKNTVYLQMNSLKPEDTAVYYCAKDSGVWRYDHWGQGTQVTVSS | low polyreactivity |
| QVQLVESGGGLVQAGGSLRLSCAASGSTFLLYAMGWSRQAPGKERELVASISGDGSTNYADSVKGRFTISRDNAKNTVYLQMNSLKPEDTAVYYCARDTVHRLRISSVISNYWGQGTQVTVSS | low polyreactivity |
| QVQLQEGGGGLVQAGVSLRLSCAASGYISYGDVMGWNRQAPGEERELVASIGLDATTNYADSVKGRFTISRDNAKISVYLQMNSLKPEATAVYYCAADVGSGVLCGYWGQGTQMTVSS | high polyreactivity |
| QVQLVESGGGLVQAGGSLRLSCAASGFTFYYNARGWYRQAPGKERELVASITRSGGRTYYADSVKGRFTISRDNAKNTVYLQMNSLKPEDTAVYYCAAANHKGSRMDYWGQGTQVTVSS | high polyreactivity |
| QVQLVQSGGGLVQAGGSLSLSCAASGRIFGINAMGWYRQAPGKESELVAAISSGGSTYYADSVKGRFTISLDNAKNTVYLQMNSLKPEDTAVYYCAADYDSYVSHDRGVWRDYWGQGTQVTVSS | low polyreactivity |
| QVQLVESGGGLVQAGGSLRLSCAASGRTFAPYAMGWYRQAPGKERQLVAAISQRGGSTYYADSVKGRFTISRDNAKNTVYLQMNSLKPEDTAIYYCAATKYFYRLSSAFSFGTYGYWGQGTQVTVSS | low polyreactivity |
| QFQLLESGGGLVQAGGSLRLSCAASGSIFTRNAIGWYRQAPGSERELVAAITSAGSTSYADSVKGRFTISRDNAKNTVYLQMNSQKPEDTAVYYCNTVPGRYRTFDYWGQGTQVTVSS | high polyreactivity |
| QVQLVESGGGLVQAGGSLRLSCAASGSTFTLYAMGWYRQAPGKERELVASITASDGSTSYADSVKGRFTISRDNAKNTVYLQMNSLKPEDTAVYYCAARYRVRGISYYYWGQGTQVTVSS | low polyreactivity |
| QVQLVESGGGLVQAGGSLRLSCAASGGIFGSYAMGWYRQAPGKERELVAAISWRGGSTYYADSVKGRFTISRDNAKNTVYLQMNSLKPEDTAVYYCAARYRWGYSTSYSYRFDYWGQGTQVTVSS | high polyreactivity |
| QVQLVESGGGLVQAGGSLRLSCAASGRTFYRYAMGWYRQAPGKERELVATISRSGGSTYYADSVKGRFTISRDNAKNTVYLQMNSLKPEDTAVFYCNAEGYPWGFYTYDYWGQGTQVTVSS | low polyreactivity |
| QVQLVESGGGLVQAGGSLRISCAASGSTFYIYSMGWYRQAPGKERELVARISGSGGSTYYADSVKVRFTISRDYAKNTVYLQMNSLKPEDTAVYYCAADDIYKYYLYYAFPYYRYDYWGLGTQVTVSS | low polyreactivity |
| QVQLVESGGGLVQAGGSLRLSCAASGSTFLRNDMGWYRQAPGKERELVAAITSGGITNYADSVKGRFTISRDNAKNTVSLQMNSLKPEDTAVYYCNKDSDLHHYHTEFDYWGQGTQVTVSS | low polyreactivity |
| QVQLVESGGGLVQAGGSLRLSCAASGRILGDNVMGWYRQAPGKERELVAAISSGSGSTYYADSVKGRFTISRDKAKNTVYLQMNSLKPEDTAVYYCAAGPYIYPGYDYWGQGTQVTVSS | low polyreactivity |
| QVQLVESGGCLVQAGGSLRLSCAASGSIFSANAMGWYRQAPGKETELVAAITRGGSTNYADSVKGRFTIARDNAKNTVYLQMNSLKPEDTAVYYCNDEPDPYSSGRVRRDYDYWGQGTQVTVSS | low polyreactivity |
| QVQLVESGGGLVQAGGSLRLSCAASGSIFFRNAMGWYRQAPGKERELVAAITWNGGSTYYADSVKGRFTISRDNAKNTVYLQMNSLKPEDTAVYYCNKYYYYRDSGYWGQGTQVTVSS | high polyreactivity |
| QVQLVESGGVLVQAGGSLRLSCAASGRTFYLYAMGWSRQAPGKERELVAAISRSGGITYYADSVKGRFTISRDNAKNTVYLQMNSLKPEDTAVYYCAASRAGGYYGKGYSWGQGTQVTVSS | high polyreactivity |
| QVQLVESGGGLVQAGGSLRLSCAASGSTFDGYAMGWYRQAPGKERELVAAISYSGSSTYYADSVKGRFTISGDNAKNTVYLQMNSLKPEDTAVVYCAVDDTHPFGPDGGGDYWGQGTQVTVSS | low polyreactivity |
| QVQLVESGGGLVQAGGSLRLSCAASGFIFRRYAMGWYRQAPGKERELVAAITRSGGSTYYADSVKGRFTISRDNAMNTVYLQMNSLKPEDTAVYYCNARYARVVPRYYYWGQGTQVTVSS | high polyreactivity |
| QVKLEESGGGLLQAGGSLRLSCAASGRIIGDYAMGSYRQAPGKERELVAANDRGGSTHYADSVKGRYTISRDNAKNTFYFQMNSLKPEDTAVYYCNLDVWANIKSRCIFAGWYDYWGQGTQVTVSS | low polyreactivity |
| QVQLVESGGGLVQAGGSLRLSCAASGSTFYAKAMGLYRQAPGKEREFVAVITQSGGSTYYADSVKGRFTISRDNAKNTVYLQMNSLKPEDTAVYYCAKTHYRRSLSMYYWGQGTQVTVSS | low polyreactivity |
| QVQLVESGGGLVQAGGSLRLSCAASGRIFPGYAMGWYRQAPGKERELVAAISGSGVRTYYADSVKGRFTISRDNAKNTFYLQMNSLKPEDTAVYYCAADSKIRTKLDYWGQGTQVTVSS | low polyreactivity |
